These results are taken from US20220194999A1 (published 2022).

What all share (assay): multimer staining
Assay [1] deals with T1, TP53 C141Y peptide on HLA-A*02:01 (human).
T1 peptide: KTYPVQLWV

For assay [2], the target named is T2, TP53 C141Y, mimic peptide TP53_C141Y8 peptide on HLA-A*02:01 (human).
T2 peptide: KMYPVQLWL

The target in assay [3] is T3, PIK3CA G118D, mimic peptide PIK3CA_G118D5 peptide on HLA-A*02:01 (human).
T3 peptide: ILNREIDFV

The target in assay [4] is T4, PIK3CA G118D peptide on HLA-A*02:01 (human).
T4 peptide: ILNREIDFA

B1: TCR of SEQ ID NOs 210 and 114 (TCR)
alpha TRAV8-4*01 TRAJ8*01 CDR3: CAVSDEDTGFQKLVF
beta TRBV12-3*01 TRBJ1-2*01 CDR3: CASSFSTCSANYGYTF
With B1, the binding result in assay [1] and in assay [2] was “recognises” throughout.

B2: TCR of SEQ ID NOs 120 and 114 (TCR)
alpha TRAV12-2*01 TRAJ15*01 CDR3: CAGLIGTALIF
beta TRBV12-3*01 TRBJ1-2*01 CDR3: CASSFSTCSANYGYTF
For B2, the binding result in assay [3] and in assay [4] was “recognises” in each case.
